In ChEMBL document CHEMBL1212772:

Experiments:
[1] = compound: C[C@@H](O)[C@H]1C(=O)N2C(C(=O)O)=C(S[C@@H]3CN[C@H](CNS(N)(=O)=O)C3)[C@H](C)[C@H]12; experiment: (§1) Inhibition of Pseudomonas aeruginosa AmpC assessed as inhibition of nitrocefin hydrolysis
[2] = compound: C[C@@H](O)[C@H]1C(=O)N2C(C(=O)O)=C(SCCNC=N)C[C@H]12; experiment: as §1
[3] = compound: C[C@@H](O)[C@H]1C(=O)N2C(C(=O)O)=C(S[C@@H]3CN[C@H](C(=O)N(C)C)C3)[C@H](C)[C@H]12; experiment: as §1
[4] = substrate: C[C@@H](O)[C@H]1C(=O)N2C(C(=O)O)=C(S[C@@H]3CN[C@H](CNS(N)(=O)=O)C3)[C@H](C)[C@H]12; experiment: (§2) Kcat/Km ratio of Pseudomonas aeruginosa AmpC
[5] = substrate: CC1(C)S[C@@H]2[C@H](NC(=O)Cc3ccccc3)C(=O)N2[C@H]1C(=O)O; experiment: as §2
[6] = substrate: O=C(Cc1cccs1)N[C@@H]1C(=O)N2C(C(=O)O)=C(/C=C/c3ccc([N+](=O)[O-])cc3[N+](=O)[O-])CS[C@H]12; experiment: as §2
[7] = substrate: C[C@@H](O)[C@H]1C(=O)N2C(C(=O)O)=C(SCCNC=N)C[C@H]12; experiment: as §2
[8] = substrate: C[C@@H](O)[C@H]1C(=O)N2C(C(=O)O)=C(S[C@@H]3CN[C@H](C(=O)N(C)C)C3)[C@H](C)[C@H]12; experiment: as §2
[9] = substrate: O=C(Cc1cccs1)N[C@@H]1C(=O)N2C(C(=O)[O-])=C(C[n+]3ccccc3)CS[C@H]12; experiment: as §2
[10] = substrate: C[C@@H](O)[C@H]1C(=O)N2C(C(=O)O)=C(S[C@@H]3CN[C@H](CNS(N)(=O)=O)C3)[C@H](C)[C@H]12; experiment: (§3) Activity of Pseudomonas aeruginosa AmpC
[11] = substrate: CC1(C)S[C@@H]2[C@H](NC(=O)Cc3ccccc3)C(=O)N2[C@H]1C(=O)O; experiment: as §3
[12] = substrate: O=C(Cc1cccs1)N[C@@H]1C(=O)N2C(C(=O)O)=C(/C=C/c3ccc([N+](=O)[O-])cc3[N+](=O)[O-])CS[C@H]12; experiment: as §3
[13] = substrate: C[C@@H](O)[C@H]1C(=O)N2C(C(=O)O)=C(SCCNC=N)C[C@H]12; experiment: as §3
[14] = substrate: C[C@@H](O)[C@H]1C(=O)N2C(C(=O)O)=C(S[C@@H]3CN[C@H](C(=O)N(C)C)C3)[C@H](C)[C@H]12; experiment: as §3
[15] = substrate: O=C(Cc1cccs1)N[C@@H]1C(=O)N2C(C(=O)[O-])=C(C[n+]3ccccc3)CS[C@H]12; experiment: as §3
[16] = substrate: CC(C)(O/N=C(\C(=O)N[C@@H]1C(=O)N2C(C(=O)[O-])=C(C[n+]3ccccc3)CS[C@H]12)c1csc(N)n1)C(=O)O; experiment: (§4) Kcat/Km ratio of Escherichia coli CMY-2
[17] = substrate: C[C@@H](O)[C@H]1C(=O)N2C(C(=O)O)=C(S[C@@H]3CN[C@H](CNS(N)(=O)=O)C3)[C@H](C)[C@H]12; experiment: as §4
[18] = substrate: CC1(C)S[C@@H]2[C@H](NC(=O)Cc3ccccc3)C(=O)N2[C@H]1C(=O)O; experiment: as §4
[19] = substrate: O=C(Cc1cccs1)N[C@@H]1C(=O)N2C(C(=O)O)=C(/C=C/c3ccc([N+](=O)[O-])cc3[N+](=O)[O-])CS[C@H]12; experiment: as §4
[20] = substrate: C[C@@H](O)[C@H]1C(=O)N2C(C(=O)O)=C(SCCNC=N)C[C@H]12; experiment: as §4
[21] = substrate: C[C@@H](O)[C@H]1C(=O)N2C(C(=O)O)=C(S[C@@H]3CN[C@H](C(=O)N(C)C)C3)[C@H](C)[C@H]12; experiment: as §4
[22] = substrate: O=C(Cc1cccs1)N[C@@H]1C(=O)N2C(C(=O)[O-])=C(C[n+]3ccccc3)CS[C@H]12; experiment: as §4
[23] = compound: C[C@@H](O)[C@H]1C(=O)N2C(C(=O)O)=C(SCCNC=N)C[C@H]12; experiment: (§5) Inhibition of Escherichia coli CMY-2 assessed as inhibition of nitrocefin hydrolysis
[24] = compound: C[C@@H](O)[C@H]1C(=O)N2C(C(=O)O)=C(S[C@@H]3CN[C@H](C(=O)N(C)C)C3)[C@H](C)[C@H]12; experiment: as §5
[25] = substrate: CC(C)(O/N=C(\C(=O)N[C@@H]1C(=O)N2C(C(=O)[O-])=C(C[n+]3ccccc3)CS[C@H]12)c1csc(N)n1)C(=O)O; experiment: (§6) Activity of Escherichia coli CMY-2
[26] = substrate: C[C@@H](O)[C@H]1C(=O)N2C(C(=O)O)=C(S[C@@H]3CN[C@H](CNS(N)(=O)=O)C3)[C@H](C)[C@H]12; experiment: as §6
[27] = substrate: CC1(C)S[C@@H]2[C@H](NC(=O)Cc3ccccc3)C(=O)N2[C@H]1C(=O)O; experiment: as §6
[28] = substrate: O=C(Cc1cccs1)N[C@@H]1C(=O)N2C(C(=O)O)=C(/C=C/c3ccc([N+](=O)[O-])cc3[N+](=O)[O-])CS[C@H]12; experiment: as §6
[29] = substrate: C[C@@H](O)[C@H]1C(=O)N2C(C(=O)O)=C(SCCNC=N)C[C@H]12; experiment: as §6
[30] = substrate: C[C@@H](O)[C@H]1C(=O)N2C(C(=O)O)=C(S[C@@H]3CN[C@H](C(=O)N(C)C)C3)[C@H](C)[C@H]12; experiment: as §6
[31] = substrate: O=C(Cc1cccs1)N[C@@H]1C(=O)N2C(C(=O)[O-])=C(C[n+]3ccccc3)CS[C@H]12; experiment: as §6

B1: Beta-lactamase (Pseudomonas aeruginosa (strain ATCC 15692 / PAO1 / 1C / PRS 101 / LMG12228)), P24735 (protein)
chain: MRDTRFPCLCGIAASTLLFATTPAIAGEAPADRLKALVDAAVQPVMKANDIPGLAVAISLKGEPHYFSYGLASKEDGRRVTPETLFEIGSVSKTFTATLAGYALTQDKMRLDDRASQHWPALQGSRFDGISLLDLATYTAGGLPLQFPDSVQKDQAQIRDYYRQWQPTYAPGSQRLYSNPSIGLFGYLAARSLGQPFERLMEQQVFPALGLEQTHLDVPEAALAQYAQGYGKDDRPLRVGPGPLDAEGYGVKTSAADLLRFVDANLHPERLDRPWAQALDATHRGYYKVGDMTQGLGWEAYDWPISLKRLQAGNSTPMALQPHRIARLPAPQALEGQRLLNKTGSTNGFGAYVAFVPGRDLGLVILANRNYPNAERVKIAYAILSGLEQQGKVPLKR
- Km [1]: 1.8 µM
- Km [2]: 1.6 µM
- Km [3]: 1.4 µM
- kcat/Km [4]: < 3300 M⁻¹ s⁻¹
- kcat/Km [5]: 3.1e+06 M⁻¹ s⁻¹
- kcat/Km [6]: 4.8e+06 M⁻¹ s⁻¹
- kcat/Km [7]: < 4.8e+06 M⁻¹ s⁻¹
- kcat/Km [8]: < 4300 M⁻¹ s⁻¹
- kcat/Km [9]: 270000 M⁻¹ s⁻¹
- kcat [10]: < 0.006 s⁻¹
- Km [11]: 14 µM
- Km [12]: 31 µM
- kcat [12]: 150 s⁻¹
- kcat [13]: < 0.03 s⁻¹
- kcat [14]: < 0.006 s⁻¹
- Km [15]: 350 µM

B2: Beta-lactamase (Escherichia coli), Q53TY8 (protein)
chain: MMKKSLCCALLLTASFSTFAAAKTEQQIADIVNRTITPLMQEQAIPGMAVAVIYQGKPYYFTWGKADIANNHPVTQQTLFELGSVSKTFNGVLGGDAIARGEIKLSDPVTKYWPELTGKQWQGIRLLHLATYTAGGLPLQIPDDVRDKAALLHFYQNWQPQWTPGAKRLYANSSIGLFGALAVKPSGMSYEEAMTRRVLQPLKLAHTWITVPQNEQKDYAWGYREGKPVHVSPGQLDAEAYGVKSSVIDMARWVQANMDASHVQEKTLQQGIALAQSRYWRIGDMYQGLGWEMLNWPLKADSIINGSDSKVALAALPAVEVNPPAPAVKASWVHKTGSTGGFGSYVAFVPEKNLGIVMLANKSYPNPVRVEAAWRILEKLQ
- kcat/Km [16]: 780 M⁻¹ s⁻¹
- kcat/Km [17]: 16000 M⁻¹ s⁻¹
- kcat/Km [18]: 1e+07 M⁻¹ s⁻¹
- kcat/Km [19]: 4.3e+07 M⁻¹ s⁻¹
- kcat/Km [20]: 100000 M⁻¹ s⁻¹
- kcat/Km [21]: 1400 M⁻¹ s⁻¹
- kcat/Km [22]: 2.4e+06 M⁻¹ s⁻¹
- Km [23]: 0.31 µM
- Km [24]: 0.06 µM
- Km [25]: 4.5 µM
- kcat [25]: 0.0035 s⁻¹
- kcat [26]: 7.2e-05 s⁻¹
- Km [27]: 2.2 µM
- kcat [27]: 22 s⁻¹
- Km [28]: 40 µM
- kcat [28]: 1700 s⁻¹
- kcat [29]: < 0.031 s⁻¹
- kcat [30]: 8.1e-05 s⁻¹
- Km [31]: 290 µM
- kcat [31]: 710 s⁻¹
